From patent publication US20100105875A1 (published 2010) come the findings set out here.

Assay [1] addresses T1, recombinant fHbp from MC58 with Arg204 changed to histidine (Neisseria meningitidis strain MC58, UniProt E6MV22 27-274).
T1 construct: also called Arg204→His mutant
T1 sequence: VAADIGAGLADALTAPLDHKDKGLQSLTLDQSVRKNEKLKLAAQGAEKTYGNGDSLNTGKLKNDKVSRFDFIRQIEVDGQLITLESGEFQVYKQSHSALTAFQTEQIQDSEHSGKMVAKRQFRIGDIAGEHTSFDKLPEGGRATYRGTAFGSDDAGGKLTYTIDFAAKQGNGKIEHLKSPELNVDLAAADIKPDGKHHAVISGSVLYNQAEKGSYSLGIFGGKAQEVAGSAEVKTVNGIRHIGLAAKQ
As to the kind of experiment: western blot of site-directed mutant of recombinant MC58 fHbp. On the technique in general: Immunoblotting shows a protein as a band on a membrane.

The target in assay [2] is T2, fHbp of N. meningitidis strain MC58 (full-length mature factor H binding protein) (Neisseria meningitidis strain MC58, UniProt E6MV22 20-274).
T2 construct: also called MC58 fHbp; protein 741
T2 sequence: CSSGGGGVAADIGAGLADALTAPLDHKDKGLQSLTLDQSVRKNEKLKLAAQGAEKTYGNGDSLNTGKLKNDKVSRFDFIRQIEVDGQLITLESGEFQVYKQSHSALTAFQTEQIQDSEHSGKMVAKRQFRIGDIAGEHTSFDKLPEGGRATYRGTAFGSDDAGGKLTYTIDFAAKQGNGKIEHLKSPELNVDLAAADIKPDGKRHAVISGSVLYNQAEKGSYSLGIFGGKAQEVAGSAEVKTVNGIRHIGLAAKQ
Kind of assay: western blot on cell extracts; FACS on bacteria.

B1: MAb502 (antibody, V domains shown)
VH: EVQLQESGPGLAKPSQTLSLTCSVTGYSITSDFWNWIRKFPGNKLEYMGYISYSGSTDYNPSLKSRISITRDTSKNQYYLQLNSVTAEDTATYYCARYFGSSYAMDHWGQGTSVTVSS
VL: DIQMTQSPASLSASVGETVTITCRASGNIHNYLAWYQQKQGKSPQLLVYTAKTLAEGVPSRFSGSGSGTQFSLKINSLQPEDFGSYYCQHFWSTPWTFGGGTKLEIKR
notes: also called monoclonal anti-fHbp antibody MAb502
On to B1, for which the figures for the binding result in assay [1] and in assay [2] were “no binding” and “binds”, respectively.
